Results on five compounds are retold here after patent US20250263441A1 (Metanovas Biotech Inc., priority 2024, published 2025).

Holding throughout (type): cell-based
One data set deals with Candida albicans. As to the kind of experiment: Minimum inhibitory concentration on Candida albicans (liquid culture). To be noted: 37° C., 24 to 48 hours. The procedure:
Primary screening of liquid culture: the peptides in Examples 1 to 2 were dissolved in pure water to a concentration of 100 μg/mL. Using a micropipette, 10 μL of the peptides were added to a new 96-well plate in order from left to right, starting from the second compartment. Positive and negative controls were established for use. The 96-well plates were arranged vertically, and the peptide concentrations of the control groups were the same as those of the antimicrobial peptide. The control groups consisted of: pure water and bacteria, antimicrobial peptide FK13 and bacteria, and antimicrobial peptide HPA3NT3 and bacteria. An aseptic medium was used. The amino acid sequence of FK13 is […] (SEQ ID NO: 5), and the amino acid sequence of HPA3NT3 is […] (SEQ ID NO: 6).
(§1) If a 96-deep-well plate was used to culture bacteria, an additional 100 μL of sterile medium was added to all wells.
Candida albicans was inoculated in LB medium with normal oxygen concentration (21%) for 48 hours. […] clones were picked and incubated in LB medium at 37° C. with normal oxygen concentration (21%) for 48 hours. The bacterial concentration was measured and diluted to 107 CFU/mL with culture medium for use.
The prepared fresh bacterial suspension was diluted to 105 CFU/mL and added to the 96-well plate with 90 μL of the bacterial suspension per well, and incubated at 37° C. with normal oxygen concentration for 24 to 48 hours. The absorbance at 630 nm was measured with a microplate reader, and the degree of turbidity was observed by the naked eye.
(§2) (iv) Repetition of Operations: The Operations in (iii) were Repeated Twice, and the Decision to Perform a Third Repetition was Based on the Reproducibility of the Experiment.

In another data set the test system is Escherichia coli. Nature of the data set: Minimum inhibitory concentration on Escherichia coli (liquid culture). The conditions noted are these: for Minimum inhibitory concentration on Escherichia coli: 37° C., 24 to 48 hours. The method, then:
(§3) Primary screening of liquid culture: the peptides in Examples 1 to 2 were dissolved in pure water to a concentration of 100 μg/mL. Using a micropipette, 10 μL of the peptides were added to a new 96-well plate in order from left to right, starting from the second compartment. Positive and negative controls were established for use. The 96-well plates were arranged vertically, and the peptide concentrations in the control groups were the same as those of the antimicrobial peptides. The control groups included: pure water and bacteria, antimicrobial peptide FK13 and bacteria, antimicrobial peptide HPA3NT3 and bacteria, and ciprofloxacin and bacteria. An aseptic medium was used.
as §1
E. coli was inoculated in LB medium with normal oxygen concentration (21%) for 48 hours. E. coli clones were picked and incubated in LB medium at 37° C. with normal oxygen concentration (21%) for an additional 48 hours. The bacterial concentration was measured and diluted to 107 CFU/mL with culture medium for use.
(§4) The prepared fresh bacterial suspension was diluted to 105 CFU/mL and added to the 96-well plate with 90 μL of the bacterial suspension per well. The plate was incubated at 37° C. with a normal oxygen concentration for 24 to 48 hours (Propionibacterium acnes was cultured anaerobically at 37° C. for 24 to 48 hours in an anaerobic bag). The absorbance at 630 nm was measured using a microplate reader, and the degree of turbidity was observed by the naked eye.
as §2

A further data set deals with Staphylococcus aureus. Nature of the data set: Minimum inhibitory concentration on Staphylococcus aureus (liquid culture). To be noted: for Minimum inhibitory concentration on Staphylococcus aureus: 37° C., 24 to 48 hours. The method, then:
as §3, §1
Staphylococcus aureus was inoculated in LB medium with a normal oxygen concentration (21%) for 48 hours. Staphylococcus aureus clones were picked and incubated in LB medium at 37° C. with a normal oxygen concentration (21%) for an additional 48 hours. The bacterial concentration was measured and diluted to 107 CFU/mL with culture medium for use.
as §4, §2

For a further data set, the system named is Propionibacterium acnes. Nature of the data set: Minimum inhibitory concentration on Propionibacterium acnes (liquid culture). The conditions noted are these: for Minimum inhibitory concentration on Propionibacterium acnes: anaerobic, 37° C., 24 to 48 hours. The method, then:
as §3, §1
Propionibacterium acnes was inoculated on an anaerobic blood agar plate, placed in an anaerobic bag, and incubated anaerobically at 37° C. for 48 hours. Propionibacterium acnes clones were then picked and incubated anaerobically in liquid anaerobic broth medium at 37° C. for an additional 48 hours. The bacterial concentration was measured and diluted to 107 CFU/mL with culture medium.
as §4, §2

The test system of data set [1] is rabbit blood erythrocytes. As to the kind of experiment: Measurement of hemolytic concentration. To be noted: for Hemolysis rate: 37° C., 1 hour, replicate wells; for Minimum hemolytic concentration: rabbit erythrocytes. The method, then: 4 mL of 2% rabbit blood erythrocytes were washed twice with 4 mL PBS and centrifuged at 3000 rpm for 5 minutes. The supernatant was discarded, and the rabbit blood erythrocytes were resuspended in 4 mL PBS. 160 μg of the peptides from Examples 1 to 2, FK13, and HPA3NT3 were independently dissolved in 1 mL PBS buffer to prepare the peptide mother solutions with a concentration of 160 μg/mL. Subsequently, the peptide mother solutions were diluted with PBS buffer to concentrations of 80 μg/mL, 64 μg/mL, 32 μg/mL, 16 μg/mL, and 8 μg/mL. 100 μL of the 2% rabbit blood erythrocytes and 100 μL of different concentrations of peptides (80 μg/mL, 64 μg/mL, 32 μg/mL, 16 μg/mL, 8 μg/mL) were added to each well of a 96-well plate. In the negative control, 100 μL of PBS buffer was added, while in the positive control, 100 μL of 0.1% (w/v) Triton X-100 was added. Three replicate wells were set up for each group and incubated at 37° C. for 1 hour. The 96-well plate was then removed, centrifuged at 3000 rpm for 5 minutes, and 100 μL of supernatant was aspirated and transferred to a new 96-well plate. The absorbance was measured at 540 nm using an enzyme meter. Hemolysis rate (%)=((Absorbancesample−Absorbancenegative)/(Absorbancepositive−Absorbancenegative))*100%.

The test system of data set [2] is HaCat (human immortalized epidermal cells) cells. As to the kind of experiment: Cytotoxic assay (CCK-8) in HaCat cells. The conditions noted are these: 60 hours. The method, then: Preparation of Cell Suspension: HaCat (human immortalized epidermal cells) cells were counted and inoculated into 96-well plates. 100 μL of cell suspension was added to each well, corresponding to a density of 5×10^4 cells per well, with three replicates for each sample. The cells were cultured in a 37° C. incubator for 4 hours until they were attached to the plate. Peptides from the examples, as well as FK13 and HPA3NT3, were then added at concentrations of 80 μg/mL, 32 μg/mL, and 8 μg/mL. The cells were incubated at 37° C. for 60 hours. Afterward, 10 μL of CCK-8 solution was added, and the cells were cultured for an additional 2 hours. The absorbance of the peptides at 450 nm was measured using a dual-wavelength detector, with a detection wavelength of 450-490 nm and a reference wavelength of 600-650 nm.

Data set [3] concerns Mouse macrophage RAW264.7 cells. Nature of the data set: NO concentration after treatment of LPS-stimulated RAW264.7 cells. To be noted: Dexamethasone positive control; LPS 10 ng/ml, 24 hours; replicate experiments. The procedure:
(§5) (1) Mouse macrophage RAW264.7 cells were cultured in DMEM supplemented with 10% fetal bovine serum (FBS) and 1% penicillin and streptomycin (P/S) at 37° C. in a 5% CO2 incubator.
(§6) (2) 5×10^4 mouse-derived RAW264.7 macrophages were placed in 12-well cell culture plates and cultured for 24 hours. Then, 20 μL of PBS (negative control), Dexamethasone (positive control), and the test peptide were added to the wells for incubation for 2 hours. Afterward, 10 ng/ml of lipopolysaccharide (LPS) was mixed with RAW264.7 cells and incubated for 24 hours.
(§7) (3) The supernatant was collected, and NO and IL-6/IL-1ß expression levels were measured using a commercial kit.

Data set [4] has the same test system. As to the kind of experiment: IL-6 and IL-1β protein concentration in LPS-stimulated RAW264.7 cells (ELISA). The conditions noted are these: Dexamethasone positive control; LPS 10 ng/ml, 24 hours; repeated experiments. The method, then:
as §5, §6, §7
2. After treating RAW264.7 cells with peptide AMP-33, an ELISA kit was used to detect the concentration of IL-6 and IL-1β proteins.
Background: An ELISA detects its analyte on a solid surface through an enzyme-linked reagent.

≈ marks a conversion by molar mass, not a printed value. Where “and” joins values, the source holds several entries; their conditions need not be identical. Equal entries are not always repeated.

In the case of “Example 1: GIFKKITGKLFKWIK (designated as AMP5)”, in the data set on Candida albicans, the “Minimum inhibitory concentration on Candida albicans” value turned out to be 25 µg/mL. For the same compound, in the data set with Escherichia coli, the “Minimum inhibitory concentration on Escherichia coli” value was found to be 50 µg/mL. Also, the “Minimum inhibitory concentration on Staphylococcus aureus” value in the data set on Staphylococcus aureus came to 50 µg/mL. The “Minimum inhibitory concentration on Propionibacterium acnes” value with Propionibacterium acnes amounted to 8 µg/mL. Further, the Hemolysis rate in data set [1] (8 μg/mL) is 14.6% and −0.9% and 2.8%; in data set [1] (16 μg/mL), 5.9% and 1.8% and 80.0%; in data set [1] (32 μg/mL) it was 62% and 2.8% and −1.9%; in data set [1] (64 μg/mL), 3.7% and −1.0% and 3.8%; in data set [1] (80 μg/mL), 14.6% and −0.9% and 2.8%. In data set [1], the Minimum hemolytic concentration came to 3.7 µg/mL. The Maximum cytotoxicity-free concentration in data set [2] is 80 µg/mL.
Take `C[C@@H]1C[C@H]2[C@@H]3CCC4=CC(=O)C=C[C@]4(C)[C@@]3(F)[C@@H](O)C[C@]2(C)[C@@]1(O)C(=O)CO` [Dexamethasone, reference compound]: the NO concentration in data set [3] was 6.80 µM and 6.06 µM and 3.43 µM. Also, in data set [4], the IL-1β protein concentration was 75.1 pg/mL and 44 pg/mL; the IL-6 protein concentration is 14.2 pg/mL and 23.9 pg/mL.
On to “FK13: antimicrobial peptide FK13, FPLTWLKWWKWKKK [reference compound]”, for which, in the data set with Candida albicans, the “Minimum inhibitory concentration on Candida albicans” value turned out to be 25 µg/mL. Also, the “Minimum inhibitory concentration on Escherichia coli” value in the data set on Escherichia coli was 50 µg/mL. In the data set with Staphylococcus aureus, the “Minimum inhibitory concentration on Staphylococcus aureus” value was 4 µg/mL. Moreover, in the data set with Propionibacterium acnes, the “Minimum inhibitory concentration on Propionibacterium acnes” value is 4 µg/mL. For the same compound, the Hemolysis rate in data set [1] (8 μg/mL) was 3.9% and 7.2% and 5.9%; in data set [1] (16 μg/mL) it was 3.4% and 2.5% and 0.4%; in data set [1] (32 μg/mL), 2.5% and 3.1% and 5.0%; in data set [1] (64 μg/mL), 5.3% and 2.5% and 2.7%; in data set [1] (80 μg/mL) it was 27.0% and 21.5% and 27.4%. This compound also yielded a Minimum hemolytic concentration in data set [1] of 64.0 µg/mL. Besides, the Maximum cytotoxicity-free concentration in data set [2] worked out at 80 µg/mL.
As to `O=C(O)c1cn(C2CC2)c2cc(N3CCNCC3)c(F)cc2c1=O` [ciprofloxacin], the MIC in the data set with Escherichia coli (Escherichia coli, read-out: Minimum inhibitory concentration on Escherichia coli) was 0.25 µg/mL (≈ 0.754 µM); in the data set with Staphylococcus aureus (Staphylococcus aureus, read-out: Minimum inhibitory concentration on Staphylococcus aureus), 0.25 µg/mL (≈ 0.754 µM); with Propionibacterium acnes (Cutibacterium acnes, read-out: Minimum inhibitory concentration on Propionibacterium acnes), 0.25 µg/mL (≈ 0.754 µM).
As to “HPA3NT3: antimicrobial peptide HPA3NT3, FKRLKKLFKKKKIWNWK [reference compound]”, in the data set on Candida albicans, the “Minimum inhibitory concentration on Candida albicans” value is 50 µg/mL. In addition, the “Minimum inhibitory concentration on Escherichia coli” value in the data set with Escherichia coli worked out at 25 µg/mL. Besides, in the data set on Staphylococcus aureus, the “Minimum inhibitory concentration on Staphylococcus aureus” value stood at 4 µg/mL. In addition, the “Minimum inhibitory concentration on Propionibacterium acnes” value with Propionibacterium acnes worked out at 2 µg/mL. Moreover, the Hemolysis rate is 2.4% and 6.2% and 4.7% in data set [1] (8 μg/mL); 23% and −0.2% and 0.4% in data set [1] (16 μg/mL); 2.7% and 1.4% and 7.8% in data set [1] (32 μg/mL); 21.4% and −0.8% and 0.6% in data set [1] (64 μg/mL); 9.7% and 8.5% and 13.7% in data set [1] (80 μg/mL). This compound registered a Minimum hemolytic concentration in data set [1] of 64.0 µg/mL. This compound also showed a Maximum cytotoxicity-free concentration in data set [2] of 32 µg/mL.
